From patent US20210145976A1 come the findings set out here.

Where a chain is given by its changes, count along the chain named.

B1: SEQ ID NO 216 (designed binder)
chain: MLPAPKNLVVSRVTEDSARLSWTAPDAAFDSFPIAYAEPTPSGEAIVLTVPGSERSYDLTGLKPGTEYSVLIHGVKGGGLSLPLSAIFTT
B2: SEQ ID NO 194 (designed binder)
chain: MLPAPKNLVVSRVTEDSARLSWTAPDAAFDSFEIDYDELAIYGEAIVLTVPGSERSYDLTGLKPGTEYRVFIYGVKGGWTSWPLSTIFTT
B3: SEQ ID NO 205 (designed binder)
chain: B2 chain with E33D, L39P, I41W, Y42N, W79N, T86A
B4: SEQ ID NO 206 (designed binder)
chain: B2 chain with E33D, D35E, A40W, I41K, Y42N, W79Y, T80G, W82F, T86A
B5: SEQ ID NO 187 (designed binder)
chain: MLPAPKNLVVSRVTEDSARLSWTAPDAAFDSFVIEYFEFVGYGEAIVLTVPGSERSYDLTGLKPGTEYSVGIYGVKGGKLSPPLSAIFTT
B6: SEQ ID NO 46 (designed binder)
chain: B5 chain with V33T, V40T, Y42T, S69Y, G71S, K79L, P82A
B7: SEQ ID NO 222 (designed binder)
chain: B5 chain with V33Y, F39W, V40T, Y42S, S69N, G71A, K79A, L80V, P82Y
B8: SEQ ID NO 48 (designed binder)
chain: B5 chain with F39Q, V40F, G41N, Y42L, S69W, K79W, P82H
B9: SEQ ID NO 200 (designed binder)
chain: B5 chain with V33Y, F37Y, F39W, V40M, G41H, Y42T, G71Y, K79Y, L80P, P82S
B10: SEQ ID NO 203 (designed binder)
chain: B5 chain with F29L, V33R, F37Y, F39S, V40Y, Y42H, S69D, K79Y, L80Y, P82R
B11: SEQ ID NO 188 (designed binder)
chain: B1 chain with P33L, A35P, P39T, T40S, G79K
B12: SEQ ID NO 186 (designed binder)
chain: MLPAPKNLVVSRVTEDSARLSWTAPDAAFDSFFIGYLESAEAIVLTVPGSERSYDLTGLKPGTEYLVTIQGVKGGIASDPLSAIFTT
B13: SEQ ID NO 193 (designed binder)
chain: MLPAPKNLVVSRVTEDSARLSWTAPDAAFDSFTIWYAEAVGNGEAIVLTVPGSERSYDLTGLKPGTEYWVDIWGVKGGEFSSPLSAIFTT
B14: SEQ ID NO 47 (designed binder)
chain: B13 chain with V40L, N42D, W69F, W73Y, E79F, F80W, S82L
B15: SEQ ID NO 218 (designed binder)
chain: B13 chain with W35L, A37Y, A39M, N42E, L62P, W73Y, E79G, F80W, S82R
B16: SEQ ID NO 197 (designed binder)
chain: B13 chain with T33K, W35D, A37L, A39I, V40N, G41D, W69P, D71Y, E79Y, F80P
B17: SEQ ID NO 220 (designed binder)
chain: MLPAPKNLVVSRVTEDSARLSWTAPDAAFDSFHIIYEEDGTEGEAIYLRVPGSERSYDLTGLKPGTEYEVDIEGVKGGVLSWPLFAEFTT
B18: SEQ ID NO 195 (designed binder)
chain: MLPAPKNLVVSRVTEDSARLSWTAPDAAFDSFPIEYDEIPFWGEAIVLTVPGSERSYDLTGLKPGTEYRVWIHGVKGGNSSWPLSAIFTT
B19: SEQ ID NO 198 (designed binder)
chain: MLPAPKNLVVSRVTEDSARLSWTAPDAAFDSFLIAYNEDRKFGEAIVLTVPGSERSYDLTGLKPGTEYDVWIEGVKGGSLSFPLSAIFTT
B20: SEQ ID NO 214 (designed binder)
chain: MLPAPKNLVVSRVTEDSARLSWTAPDAAFDSFAIPYGERQELGEAIVLTVPGSERSYDLTGLKPGTEYFVVIQGVKGGQPSYPLSAIFTT
B21: SEQ ID NO 204 (designed binder)
chain: MLPAPKNLVVSRVTEDSARLPWTAPDAAFDSFWISYYESVGYGEAIVLTVPGSERSYDLTGLKPGTEYYVDISGVKGGVYSLPLSAIFTT
B22: SEQ ID NO 45 (designed binder)
chain: MLPAPKNLVVSRVTEDSARLSWTAPDAAFDSFAIYYLESYPEGEAIVLTVPGSERSYDLTGLKPGTEYWVGIDGVKGGTWSSPLSAIFTT
B23: SEQ ID NO 217 (designed binder)
chain: B22 chain with A33I, Y35E, L37W, S39W, P41F, E42A, W69T, G71W, D73T, S82E
B24: SEQ ID NO 212 (designed binder)
chain: B5 chain with V33I, F37W, F39Q, V40I, Y42V, S69W, K79L, P82S
B25: SEQ ID NO 190 (designed binder)
chain: MLPAPKNLVVSRVTEDSARLSWTAPDAAFDSFFIGYPEYPATGEAITLFVPGSERSYDLTGLKPGTEYNVVIQGVKGGRPSNPLVVAFTT
B26: SEQ ID NO 189 (designed binder)
chain: MLPAPKNLVVSRVTEDSARLSWTAPDAAFDSFHEWVYFGEAIVLTVPGSERSYDLTGLKPGTEYFVDIWGVKGGTVSKPLSAIFTT
B27: SEQ ID NO 208 (designed binder)
chain: MLPAPKNLVVSRVTEDSARLSWTAPDAAFDSFGIVYREPYVGGEAIVLTVPGSERSYDLTGLKPGTEYGVPIPGVKGGYDSGPLSAIFTT
B28: SEQ ID NO 211 (designed binder)
chain: MLPAPKNLVVSRVTEDSARLSWTAPDAAFDSFWINYYEAQPDGEAIVLTVPGSERSYDLTGLKPGTEYDVEIAGVKGGTASLPLSAIFTT
B29: SEQ ID NO 210 (designed binder)
chain: MLPAPKNLVVSRVTEDSARLSWTAPDAAFDSFSIVYGERFVNGEAIVLTVPGSERSYDLTGLKPGTEYHVYIDGVKGGDLSWPLSAIFTT
B30: SEQ ID NO 192 (designed binder)
chain: MLPAPKNLVVSRVTEDSARLSWTALDAAFDSFFIGYLEPQPPGEAIVLTVPGSERSYDLTGLKPGTEYNVTIQGVKGGFPSMPLSAIFTT
B31: SEQ ID NO 199 (designed binder)
chain: B30 chain with L25P, F33G, G35R, L37F, P39W, Q40W, P41D, P42L, L59P
B32: SEQ ID NO 207 (designed binder)
chain: B30 chain with L25P, F79T, M82E, F88S
B33: SEQ ID NO 221 (designed binder)
chain: MLPAPKNLVVSRVTEDSARLSWTAPDAAFDSFHISYQEVVAEGEAIYLRVPGSERSYDLTGLKPGTEYYVLIHGVKGGYESKPLDASFTT
B34: SEQ ID NO 213 (designed binder)
chain: MLPAPKNLVVSRVTEDSARLSWTAPDAAFDSFWIYYWEIERAGEAIRLDVPGSERSYDLTGLKPGTEYRVDIWGVKGGPTSGPLRATFTT
B35: SEQ ID NO 191 (designed binder)
chain: MLPAPENLVVSRVTEDSARLSWTAPDAAFDSFEITYEENWRRGEAIVLTVPGSERSYDLTGPKPGTEYIVIIQGVKGGAESWPLSAIFTT
B36: SEQ ID NO 196 (designed binder)
chain: MLPAPKNLVVSRVTEDSARLSWTAPDAAFDSFNIHYVEWWVLGEAIVLTVPGSERSYDLTGLKPGTEYPVYIYGVKGGPKSIPLSAIFTT
B37: SEQ ID NO 201 (designed binder)
chain: B36 chain with H35D, V37W, W39T, L42I, P69E, Y71I, Y73P, P79T, K80I, I82P
B38: SEQ ID NO 202 (designed binder)
chain: MLPAPKNLVVSRVTEDSARLSWTAPDAAFDSFYIDYLELTYSGEAIVLTVPGSERSYDLTGLKPGTEYYVYIYGVKGGYPSSPLSAIFTT
B39: SEQ ID NO 215 (designed binder)
chain: B1 chain with P33L, A35P, P39T, T40S, S42T, G79Y, L80P, L82S
B40: SEQ ID NO 219 (designed binder)
chain: B38 chain with Y33H, S42A, Y71T

Chain of human serum albumin (human) (P02768 25-609 limits assumed): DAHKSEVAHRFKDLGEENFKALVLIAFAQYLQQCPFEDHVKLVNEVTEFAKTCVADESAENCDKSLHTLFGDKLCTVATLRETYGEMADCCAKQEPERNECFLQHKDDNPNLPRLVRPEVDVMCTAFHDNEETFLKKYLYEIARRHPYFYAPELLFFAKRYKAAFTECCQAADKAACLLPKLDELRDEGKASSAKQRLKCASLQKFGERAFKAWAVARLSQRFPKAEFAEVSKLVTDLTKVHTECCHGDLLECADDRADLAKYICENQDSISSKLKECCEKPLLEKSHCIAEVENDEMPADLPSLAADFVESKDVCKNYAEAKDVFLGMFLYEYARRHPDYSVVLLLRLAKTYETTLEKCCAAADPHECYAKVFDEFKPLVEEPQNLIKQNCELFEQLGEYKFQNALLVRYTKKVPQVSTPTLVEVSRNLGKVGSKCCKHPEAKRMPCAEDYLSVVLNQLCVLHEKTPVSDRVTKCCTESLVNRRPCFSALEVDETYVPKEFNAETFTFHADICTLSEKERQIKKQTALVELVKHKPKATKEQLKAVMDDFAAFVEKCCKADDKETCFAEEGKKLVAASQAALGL

The assay has as its target human serum albumin (human) (UniProt P02768). The assay can be described thus: screening ELISA.
Consider B1, for which the HSA came out at 21800.

For the molecule B2, the HSA stood at 17800.

B3 registered an HSA of 3350.

Molecule B4 showed an HSA of 2650.

Molecule B5 returned an HSA of 7250.

B6 had an HSA of 3040.

With B7, the HSA was 3950.

B8 showed an HSA of 2800.

B9 came in with an HSA of 2100.

With B10, the HSA was 3300.

With B11, the HSA amounted to 3350.

On to B12, for which the HSA came out at 1850.

Turning to B13, the HSA came out at 2500.

As to B14, the HSA was determined as 5200.

Consider B15, for which the HSA was 33800.

Take B16: the HSA was 18900.

B17: the HSA stood at 9400.

B18 had an HSA of 90200.

In turn, B19 had an HSA of 3050.

The molecule B20 gave an HSA of 2200.

B21 came in with an HSA of 24600.

The molecule B22 came in with an HSA of 2880.

In the case of B23, the HSA is 11800.

B24: the HSA was found to be 2250.

B25 registered an HSA of 4900.

Molecule B26 gave an HSA of 67500.

In turn, B27 registered an HSA of 46700.

As to B28, the HSA was 3000.

Take B29: the HSA was found to be 2250.

B30 registered an HSA of 4100.

For B31, the HSA was found to be 14400.

For the molecule B32, the HSA was found to be 25600.

Molecule B33 registered an HSA of 3650.

As to B34, the HSA was determined as 9800.

B35: the HSA was 34000.

Molecule B36 gave an HSA of 34600.

Molecule B37 came in with an HSA of 11400.

On to B38, for which the HSA came to 2800.

B39 yielded an HSA of 1750.

In turn, B40 displayed an HSA of 2600.
